Patent publication US9745384B2, “Peptides useful for modulating histone demethylase function” (The Brigham and Women's Hospital, Inc., priority 2012, dated 2017)

What was measured:
His-LSD2 = biological target: T1, His-LSD2 (Homo sapiens, UniProt Q8NB78); experiment: Nucleosome demethylation assay (NPAC cofactor activity for LSD2, immunoblot); assay type: biochemical; settings: for Cofactor activity: stimulation of LSD2 demethylation of nucleosomal H3K4me2: threshold dosage of His-LSD2, nucleosomes purified from HeLa
T1 construct: typically 0.5 μg full-length His-LSD2; made in house; host or cells: Sf9 insect cells
T1 sequence (Q8NB78 1-822): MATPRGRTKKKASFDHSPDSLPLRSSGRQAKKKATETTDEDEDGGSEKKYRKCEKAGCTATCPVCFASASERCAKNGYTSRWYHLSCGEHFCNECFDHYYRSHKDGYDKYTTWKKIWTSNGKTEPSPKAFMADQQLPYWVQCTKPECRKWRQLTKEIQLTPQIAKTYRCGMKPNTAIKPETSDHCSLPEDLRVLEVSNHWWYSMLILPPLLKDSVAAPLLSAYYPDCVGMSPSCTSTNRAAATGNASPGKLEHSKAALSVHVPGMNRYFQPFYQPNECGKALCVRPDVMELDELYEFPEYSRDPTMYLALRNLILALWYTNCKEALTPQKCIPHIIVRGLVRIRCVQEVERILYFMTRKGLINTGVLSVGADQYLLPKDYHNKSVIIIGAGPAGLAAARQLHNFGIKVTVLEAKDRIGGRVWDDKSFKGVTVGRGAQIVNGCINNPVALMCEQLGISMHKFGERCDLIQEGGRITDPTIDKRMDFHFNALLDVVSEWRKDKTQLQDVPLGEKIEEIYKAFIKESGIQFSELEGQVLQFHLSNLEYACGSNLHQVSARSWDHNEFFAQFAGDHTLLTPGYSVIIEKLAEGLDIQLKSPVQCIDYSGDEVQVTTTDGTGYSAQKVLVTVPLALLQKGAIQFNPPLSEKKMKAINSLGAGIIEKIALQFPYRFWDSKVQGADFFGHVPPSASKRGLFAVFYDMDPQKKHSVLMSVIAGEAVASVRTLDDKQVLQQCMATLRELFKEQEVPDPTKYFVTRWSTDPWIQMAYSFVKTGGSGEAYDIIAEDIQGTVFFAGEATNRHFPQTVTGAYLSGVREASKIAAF
Experimental: For nucleosome demethylation assays, typically 0.5 μg full-length His-LSD2, 1 μg NPAC protein or peptides, and 2 μg nucleosomes purified from HeLa were used, and demethylation efficiency was analyzed by SDS-PAGE electrophoresis and immunoblot using methylation specific anti-histone H3 antibodies as previously described (Shi et al. 2004).

[1] = tested on: nucleosomes purified from HeLa; experiment: Nucleosome pulldown by GST-NPAC proteins; assay type: binding
Experimental: Nucleosomes were purified from HeLa as previously described (Umlauf et al., 2004). To examine nucleosome binding selectivity of NPAC, 5 μg GST fusion protein bound to glutathione agarose were incubated with 20 μg nucleosomes overnight at 4° C. in nucleosome binding buffer (50 mM NaPO4 pH 7.4, 200 mM NaCl, 0.5% NP-40, 5% glycerol, 10 μM ZnSO4, 1 mM MgCl2, 1 mM DTT, 0.1 mM PMSF). After washing 4 times with the same buffer at 4° C., the beads were boiled in 1×SDS sample loading buffer and elute was resolved by 15% SDS-PAGE for immunoblot analysis or coomassie staining.
For free-DNA competition assays, human genomic DNA was purified from HeLa cells and fragmented to an average size around 300 bp by sonication. Equal amounts of GST-NPAC.d5 bound to glutathione beads were pre-incubated with 0, 5, 10, 25 μg genomic DNA fragments in nucleosome binding buffer for 30 minutes at room temperature, and equal amounts of nucleosomes were added and incubated overnight at 4° C. After extensive washing, GST-NPAC.d5 and bound nucleosomes were eluted by boiling in 1×SDS sample loading buffer, resolved by SDS-PAGE and stained with coomassie blue.

[2] = tested on: CCND1 and CCNE1 expression; experiment: CCND1 and CCNE1 expression in breast cancer cells; assay type: cell-based; settings: stable MDA-MB-231 cell lines, shRNA-resistant cDNA
Source text: We first established stable MDA-MB-231 cell lines that express similar levels of the mutant or the wild-type full-length NPAC from cDNAs introduced with silent mutations and resistant to NPAC shRNA (data not shown). […] Thus, mutation of the LSD2-interacting residues F218, L219 and L291 of NPAC can disrupt LSD2 and NPAC functions in vivo.
We next examined if it is possible to use a small molecule to manipulate the interaction between NPAC and LSD2, thus affecting target gene expression. We have shown that a short mutant NPAC peptide (residues 214-225) can interact with LSD2 with high affinity, however, lost its cofactor activity. NPAC214-225.F217A is expected to be able to competitive inhibit the interaction between endogenous NPAC and LSD2, without stimulating LSD2 demethylase activity (FIG. 25A, right). […] Thus, unable to stimulate the histone demethylase activity of endogenous LSD2, this mutant peptide is a potent inhibitor of LSD2 function by competitively inhibiting LSD2 binding by endogenous NPAC.

B1: NPAC: full-length human NPAC/GLYR1 (protein ID: Q49A26), recombinant, LSD2 cofactor (protein)
chain: MAAVSLRLGDLVWGKLGRYPPWPGKIVNPPKDLKKPRGKKCFFVKFFGTEDHAWIKVEQLKPYHAHKEEMIKINKGKRFQQAVDAVEEFLRRAKGKDQTSSHNSSDDKNRRNSSEERSRPNSGDEKRKLSLSEGKVKKNMGEGKKRVSSGSSERGSKSPLKRAQEQSPRKRGRPPKDEKDLTIPESSTVKGMMAGPMAAFKWQPTASEPVKDADPHFHHFLLSQTEKPAVCYQAITKKLKICEEETGSTSIQAADSTAVNGSITPTDKKIGFLGLGLMGSGIVSNLLKMGHTVTVWNRTAEKCDLFIQEGARLGRTPAEVVSTCDITFACVSDPKAAKDLVLGPSGVLQGIRPGKCYVDMSTVDADTVTELAQVIVSRGGRFLEAPVSGNQQLSNDGMLVILAAGDRGLYEDCSSCFQAMGKTSFFLGEVGNAAKMMLIVNMVQGSFMATIAEGLTLAHVTGQSQQTLLDILNQGQLASIFLDQKCQNILQGNFKPDFYLKYIQKDLRLAIALGDAVNHPTPMAAAANEVYKRAKALDQSDNDMSAVYRAYIH
Demethylase activity of NPAC itself (His-LSD2; NPAC alone, without LSD2): no demethylase activity | Cofactor activity: stimulation of LSD2 demethylation of nucleosomal H3K4me2 (His-LSD2; listed as His-NPAC): stimulated LSD2 activity in a dose-dependent manner | Cofactor activity: stimulation of LSD2 demethylation of nucleosomal H3K4me2 (His-LSD2; listed as wild-type NPAC): robust activity | Nucleosome binding (GST-pulldown) [1]: binds strongly with purified nucleosomes | Rescue of CCND1 and CCNE1 down regulation caused by NPAC shRNA [2]: prevents down regulation of CCND1 and CCNE1 by NPAC shRNA
